First the molecules themselves.
B1: Succinate dehydrogenase assembly factor 2, mitochondrial (Homo sapiens), Q9NX18 (parent)
chain: MAVSTVFSTSSLMLALSRHSLLSPLLSVTSFRRFYRGDSPTDSQKDMIEIPLPPWQERTDESIETKRARLLYESRKRGMLENCILLSLFAKEHLQHMTEKQLNLYDRLINEPSNDWDIYYWATEAKPAPEIFENEVMALLRDFAKNKNKEQRLRAPDLEYLFEKPR

This note sets out measurements from IntAct's records for PubMed 19628817.

The test covers variants of B1. The following applies: with sdha_human SDHA.
Consider G78R, for which the “effect of a mutation on the interaction” value was “disrupting interaction strength”.
